As usually defined, the Kd is the free concentration of one partner at which half of the binding sites on the other are occupied at equilibrium, for simple one-to-one binding. A high value points to weaker binding.

1 molecule from patent US20240132624A1 can be followed below.

Assay [1] has as its target human FcRn/b2M (human) (UniProt P61769). Kind of assay: SPR pH 6.0.
Assay [2] has the same target. Kind of assay: SPR pH 7.4.
Assay [3] shares this target. Kind of assay: SPR; pH 7.4 vs pH 6.0. Background: SPR reads the build-up and loss of mass on a sensor chip optically.

Sequence of human FcRn/b2M (human) (chain, as listed by the source limits assumed, chain 1 of 2): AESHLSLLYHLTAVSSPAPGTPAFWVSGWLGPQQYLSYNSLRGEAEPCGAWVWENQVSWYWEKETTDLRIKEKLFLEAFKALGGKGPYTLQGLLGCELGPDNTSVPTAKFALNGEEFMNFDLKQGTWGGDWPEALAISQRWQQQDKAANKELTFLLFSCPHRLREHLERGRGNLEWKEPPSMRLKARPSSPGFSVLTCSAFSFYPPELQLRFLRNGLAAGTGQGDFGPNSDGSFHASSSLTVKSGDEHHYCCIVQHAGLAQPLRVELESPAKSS
Sequence of human FcRn/b2M (human) (P61769 21-119 limits assumed, chain 2 of 2): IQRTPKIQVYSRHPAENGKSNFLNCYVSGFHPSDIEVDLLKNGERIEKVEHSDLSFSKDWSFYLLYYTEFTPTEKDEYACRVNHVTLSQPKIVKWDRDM

B1: T0263018B11 bivalent (VHH, part only; not given: linker, not shown: small tags and cut ends)
chain, part: EVQLVESGGGVVQPGGSLRLSCAASGFTFSSYAMYWVRQAPGKGLEWVSAISSGGGSTDYADSVKGRFTISRDNSKNTLYLQMNSLRPEDTALYYCAADTLYTSLTWYSYWGQGTLVTVSSEVQLVESGGGVVQPGGSLRLSCAASGFTFSSYAMYWVRQAPGKGLEWVSAISSGGGSTDYADSVKGRFTISRDNSKNTLYLQMNSLRPEDTALYYCAADTLYTSLTWYSYWGQGTLVTVSS
Take B1: the Kd with human FcRn/b2M (human) [1] stood at 19 nM; with human FcRn/b2M (human) [2], 1000 nM. Besides, the KD ratio pH 7.4/6.0 with human FcRn/b2M (human) [3] turned out to be 54.
